Where a chain is given by its changes, count along the chain named.
Key:
Experiment in all cases: EMSA
Settings in all cases: 10 nM DNA in 15 mM HEPES pH 7.9, 40 mM KCl, 1 mM EDTA, 0.5% DTT, 5% glycerol, 30 min (incubation temperature not stated); 6% native PAGE in TAE at 4 C, SYBR …
[1] = target: T1, StpA A77D A77D (Salmonella enterica serovar Typhimurium 14028s) (UniProt A0A0F6B5K2)
T1 sequence: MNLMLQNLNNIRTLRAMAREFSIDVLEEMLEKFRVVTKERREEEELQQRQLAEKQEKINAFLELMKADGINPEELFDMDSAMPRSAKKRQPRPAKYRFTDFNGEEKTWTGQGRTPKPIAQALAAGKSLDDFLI

[2] = target: T2, StpA WT (Salmonella enterica serovar Typhimurium 14028s) (UniProt A0A0F6B5K2)
T2 sequence: T1 sequence with D77A

[3] = target: T3, StpA M4T M4T (Salmonella enterica serovar Typhimurium 14028s) (UniProt A0A0F6B5K2)
T3 sequence: T1 sequence with M4T, D77A

[4] = target: T4, H-NS (6His) (Salmonella enterica serovar Typhimurium 14028s?) (UniProt A0A0F6B244)
T4 sequence: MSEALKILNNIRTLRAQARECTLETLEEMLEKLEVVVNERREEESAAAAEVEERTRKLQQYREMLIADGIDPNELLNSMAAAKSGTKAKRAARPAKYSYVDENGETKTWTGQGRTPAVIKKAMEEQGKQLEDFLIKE

[5] = target: T5, StpA T37I T37I (Salmonella enterica serovar Typhimurium 14028s) (UniProt A0A0F6B5K2)
T5 sequence: T1 sequence with T37I, D77A

Measured: binding

CTCTCTCTGCACCAGGATATACGGCAGCGTCCATTCGATAATCACAGTTAGTTATAACAATATTATTACCAACATGTCAGTTATTTAAAGCACAGGCATAAGCTAAATAATCAAATGTTAAAAACATATAAACCCGAGCCCGTAGAATATGACATTAAGCTCATAATAAAAGCTCAACCTGACCGTTAGTACTAACAGCAGAATTACTGAAACAGTAGATTCTATCCTAACGACTTGTATTAGTTATTATAACTTTTCACCCTGTAAGAGAATACACTATTATCATGCC (double strand) [hilA 289 bp fragment]
binds: [1] | [2] | [3] | [4] | [5]

Source: paper PMC4223078
